# Source: US6458926
# Molecular target: GAL-RXR (yeast GAL4 DBD linked to the human RXRα LBD) (yeast; human) (UniProt P04386)
# Experiment: cell-based or functional assay
# Sequence of T3R LBD (SV40 TAg NLS fused upstream of human T3Rβ LBD) (P10828 other isoform, or with tags, fused parts or gaps): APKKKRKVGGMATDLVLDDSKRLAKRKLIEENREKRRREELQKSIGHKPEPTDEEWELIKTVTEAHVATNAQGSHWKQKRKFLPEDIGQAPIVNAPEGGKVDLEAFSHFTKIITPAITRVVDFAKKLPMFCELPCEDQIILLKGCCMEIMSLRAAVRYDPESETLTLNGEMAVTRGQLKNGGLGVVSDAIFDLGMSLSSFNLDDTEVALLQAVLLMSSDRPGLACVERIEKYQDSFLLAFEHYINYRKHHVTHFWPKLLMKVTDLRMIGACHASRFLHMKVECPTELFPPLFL
substance,measurement,value
T3R LBD (SV40 TAg NLS fused upstream of human T3Rβ LBD) (from UniProt P10828 173-456),fold response to LG69,57 fold
